B1: Prelamin-A/C (Homo sapiens), P02545 (parent)
chain: METPSQRRATRSGAQASSTPLSPTRITRLQEKEDLQELNDRLAVYIDRVRSLETENAGLRLRITESEEVVSREVSGIKAAYEAELGDARKTLDSVAKERARLQLELSKVREEFKELKARNTKKEGDLIAAQARLKDLEALLNSKEAALSTALSEKRTLEGELHDLRGQVAKLEAALGEAKKQLQDEMLRRVDAENRLQTMKEELDFQKNIYSEELRETKRRHETRLVEIDNGKQREFESRLADALQELRAQHEDQVEQYKKELEKTYSAKLDNARQSAERNSNLVGAAHEELQQSRIRIDSLSAQLSQLQKQLAAKEAKLRDLEDSLARERDTSRRLLAEKEREMAEMRARMQQQLDEYQELLDIKLALDMEIHAYRKLLEGEEERLRLSPSPTSQRSRGRASSHSSQTQGGGSVTKKRKLESTESRSSFSQHARTSGRVAVEEVDEEGKFVRLRNKSNEDQSMGNWQIKRQNGDDPLLTYRFPPKFTLKAGQVVTIWAAGAGATHSPPTDLVWKAQNTWGCGNSLRTALINSTGEEVAMRKLVRSVTVVEDDEDEDGDDLLHHHHGSHCSSSGDPAEYNLRSRTVLCGTCGQPADKASASGSGAQVGGPISSGSSASSVTVTRSYRSVGGSGGGSFGDNLVTRSYLLGNSSPRTQSPQNCSIM

What was measured:
SYNE2, Q8WXH0-1 [1] = variants of: B1; settings: with SYNE2, Q8WXH0-1
SYNE2, Q8WXH0-1 [2] = variants of: B1; settings: with SYNE2, Q8WXH0-1; remark: listed apart in the source

effect of a mutation on the interaction (SYNE2, Q8WXH0-1 [1]) | effect of a mutation on the interaction (SYNE2, Q8WXH0-1 [2]) | Variant
decreasing interaction strength | with no effect | G413C
decreasing interaction strength | with no effect | L421P
decreasing interaction strength | with no effect | R427G

Second part, the variant before the results:

Variant | effect of a mutation on the interaction (SYNE2, Q8WXH0-1 [1]) | effect of a mutation on the interaction (SYNE2, Q8WXH0-1 [2])
R401C | increasing interaction strength | with no effect
R419C | decreasing interaction strength | with no effect
V415I | increasing interaction strength | with no effect
G411D | increasing interaction strength | with no effect

From IntAct's records for PubMed 23977161
